Reference: patent publication EP1224222B1 (ChemoCentryx, Inc., dated 2010)

Target: T1, human CCX CKR with N-terminal Flag epitope, stably expressed on HEK293 cells (human, UniProt Q9NPB9 1-350)
T1 construct: also called HEK293-CCX CKR cells
T1 sequence: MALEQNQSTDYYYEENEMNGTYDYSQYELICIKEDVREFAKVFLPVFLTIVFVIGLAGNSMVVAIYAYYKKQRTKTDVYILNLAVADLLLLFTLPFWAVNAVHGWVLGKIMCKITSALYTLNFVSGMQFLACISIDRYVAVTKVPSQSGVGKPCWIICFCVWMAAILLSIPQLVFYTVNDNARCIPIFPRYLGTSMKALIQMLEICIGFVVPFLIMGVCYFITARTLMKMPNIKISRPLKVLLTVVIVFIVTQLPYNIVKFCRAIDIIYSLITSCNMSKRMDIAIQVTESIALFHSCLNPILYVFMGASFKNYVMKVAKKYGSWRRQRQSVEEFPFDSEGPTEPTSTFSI
Experiment: radioligand binding competition on CCX CKR stable transfectants (similar experiments)

Kd: ~9 nM
B1: murine CTACK (ligand, UniProt Q9Z1X0 26-120, looked up)
chain: LPLPSSTSCCTQLYRQPLPSRLLRRIVHMELQEADGDCHLQAVVLHLARRSVCVHPQNRSLARWLERQGKRLQGTVPSLNLVLQKKMYSHPQQQN
notes: also called mCTACK; CCL27
